Data published in PMC3541284 (Autophagy, 2012).

Target: 6xHis-GABARAP (UniProt O95166 1-117)
Assay: pull-down

Chain of 6xHis-GABARAP (O95166 whole entry): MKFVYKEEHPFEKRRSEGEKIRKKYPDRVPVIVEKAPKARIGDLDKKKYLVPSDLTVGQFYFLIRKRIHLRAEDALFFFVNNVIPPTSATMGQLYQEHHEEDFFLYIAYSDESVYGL

B1: GST-MAPK15_300–373_WT (domain or fragment, UniProt Q8TD08 300-373, looked up)
chain: QHPYVQRFHCPSDEWAREADVRPRAHEGVQLSVPEYRSRVYQMILECGGSSGTSREKGPEGVSPSQAHLHKPRA
- binding result: binds
